Data as given in the supplement of paper PMC9112550, “Optimization of the antimicrobial peptide Bac7 by deep mutational scanning” (BMC Biology, 2022).

Test system: Escherichia coli TOP10
Assay: shrunken log2 fold change of peptide-encoding DNA abundance (4.5 h post-induction vs induction); higher = less antimicrobial activity (less host growth inhibition)
Details: time post-induction: 4.5 h; library: site-saturation at positions 5, 18, 19, 20
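Note: peptides expressed intracellularly from a pBAD plasmid library in pooled LB shake-flask culture, induced with 0.3% L-arabinose, DNA abundance read by NGS, three biological replicates, DESeq2 with apeglm shrinkage.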

Row | Sequence | shrunken log2 fold change
1 | RRIRARPPRLPRPRPRPEAGPRP | 1.5
2 | RRIRIRPPRLPRPRPRPMTFPRP | -0.0432
3 | RRIRYRPPRLPRPRPRPIIRPRP | -0.2
4 | RRIRWRPPRLPRPRPRPSFCPRP | -0.136
5 | RRIRTRPPRLPRPRPRPGFGPRP | 0.263
6 | RRIRHRPPRLPRPRPRPRFGPRP | 0.0573
7 | RRIRIRPPRLPRPRPRPKPEPRP | 0.0874
8 | RRIRCRPPRLPRPRPRPGVPPRP | -0.3
9 | RRIRDRPPRLPRPRPRPHEAPRP | 0.151
10 | RRIRQRPPRLPRPRPRPIFRPRP | 0.0716
11 | RRIRMRPPRLPRPRPRPNMAPRP | 0.155
12 | RRIRERPPRLPRPRPRPKKGPRP | -0.438
13 | RRIRGRPPRLPRPRPRPNSSPRP | -0.00499
14 | RRIRTRPPRLPRPRPRPIPEPRP | -0.0588
15 | RRIRWRPPRLPRPRPRPHNEPRP | -0.476
16 | RRIRERPPRLPRPRPRPCLAPRP | -0.526
17 | RRIRSRPPRLPRPRPRPYGMPRP | -0.0661
18 | RRIRMRPPRLPRPRPRPILKPRP | -0.206
19 | RRIRGRPPRLPRPRPRPLGHPRP | 0.595
20 | RRIRHRPPRLPRPRPRPFACPRP | -0.205
21 | RRIRHRPPRLPRPRPRPDLKPRP | -0.0314
22 | RRIRARPPRLPRPRPRPCFCPRP | 0.25
23 | RRIRVRPPRLPRPRPRPLGYPRP | -0.0838
24 | RRIRLRPPRLPRPRPRPLKCPRP | -0.0489
25 | RRIRCRPPRLPRPRPRPCIDPRP | -0.385

Row | Sequence | shrunken log2 fold change
26 | RRIRVRPPRLPRPRPRPPVEPRP | 0.424
27 | RRIRLRPPRLPRPRPRPAMIPRP | -0.223
28 | RRIRGRPPRLPRPRPRPEPKPRP | 0.45
29 | RRIRVRPPRLPRPRPRPYDAPRP | -0.294
30 | RRIRSRPPRLPRPRPRPLNQPRP | 0.479
31 | RRIRWRPPRLPRPRPRPVWVPRP | 0.257
32 | RRIRHRPPRLPRPRPRPCVGPRP | 0.116
33 | RRIRPRPPRLPRPRPRPEIAPRP | 0.189
34 | RRIRQRPPRLPRPRPRPINAPRP | -0.116
35 | RRIRHRPPRLPRPRPRPSISPRP | -0.727
36 | RRIRTRPPRLPRPRPRPICIPRP | -0.196
37 | RRIRRRPPRLPRPRPRPCEIPRP | 0.0684
38 | RRIRPRPPRLPRPRPRPTKLPRP | -0.0235
39 | RRIRMRPPRLPRPRPRPPNGPRP | 0.234
40 | RRIRKRPPRLPRPRPRPIGWPRP | 0.7
41 | RRIRLRPPRLPRPRPRPMHKPRP | -0.449
42 | RRIRLRPPRLPRPRPRPHHQPRP | -0.162
43 | RRIRLRPPRLPRPRPRPRWMPRP | 0.162
44 | RRIRTRPPRLPRPRPRPAWGPRP | 0.142
45 | RRIRDRPPRLPRPRPRPSLGPRP | 0.487
46 | RRIRDRPPRLPRPRPRPWSKPRP | -0.203
47 | RRIRKRPPRLPRPRPRPHSYPRP | 0.0421
48 | RRIRPRPPRLPRPRPRPYEAPRP | -0.282
49 | RRIRIRPPRLPRPRPRPQKHPRP | -0.46
50 | RRIRARPPRLPRPRPRPMAIPRP | -0.0621

Row | Sequence | shrunken log2 fold change
51 | RRIRTRPPRLPRPRPRPMCWPRP | -0.0846
52 | RRIRMRPPRLPRPRPRPFYPPRP | -0.401
53 | RRIRRRPPRLPRPRPRPIGEPRP | -0.00811
54 | RRIRFRPPRLPRPRPRPTDHPRP | -0.323
55 | RRIRDRPPRLPRPRPRPLSMPRP | -0.283
56 | RRIRFRPPRLPRPRPRPVFKPRP | -0.57
57 | RRIRFRPPRLPRPRPRPGKFPRP | 0.138
58 | RRIRDRPPRLPRPRPRPTKAPRP | 0.000414
59 | RRIRKRPPRLPRPRPRPMKIPRP | 0.291
60 | RRIRTRPPRLPRPRPRPRQDPRP | -0.144
61 | RRIRSRPPRLPRPRPRPIEFPRP | -0.387
62 | RRIRQRPPRLPRPRPRPRHWPRP | 0.218
63 | RRIRHRPPRLPRPRPRPCTCPRP | -0.0115
64 | RRIRDRPPRLPRPRPRPEALPRP | 1.21
65 | RRIRNRPPRLPRPRPRPYYHPRP | -0.781
66 | RRIRQRPPRLPRPRPRPITHPRP | -0.102
67 | RRIRERPPRLPRPRPRPWRDPRP | -0.268
68 | RRIRYRPPRLPRPRPRPFLMPRP | -0.922
69 | RRIRRRPPRLPRPRPRPEHIPRP | -0.13
70 | RRIRFRPPRLPRPRPRPAWIPRP | -0.106
71 | RRIRIRPPRLPRPRPRPQCWPRP | 0.203
72 | RRIRMRPPRLPRPRPRPAIWPRP | 1.36
73 | RRIRGRPPRLPRPRPRPLADPRP | 1.68
74 | RRIRCRPPRLPRPRPRPFGFPRP | -0.388
75 | RRIRKRPPRLPRPRPRPVMLPRP | 0.109

Row | Sequence | shrunken log2 fold change
76 | RRIRCRPPRLPRPRPRPNFFPRP | 0.0889
77 | RRIRRRPPRLPRPRPRPTIKPRP | -0.0992
78 | RRIRERPPRLPRPRPRPRKEPRP | -0.0305
79 | RRIRWRPPRLPRPRPRPNTHPRP | -0.231
80 | RRIRERPPRLPRPRPRPLEVPRP | -0.166
81 | RRIRIRPPRLPRPRPRPDICPRP | -0.0265
82 | RRIRERPPRLPRPRPRPTCFPRP | -0.133
83 | RRIRRRPPRLPRPRPRPGKRPRP | 0.363
84 | RRIRGRPPRLPRPRPRPALQPRP | 0.333
85 | RRIRYRPPRLPRPRPRPACWPRP | 0.47
86 | RRIRTRPPRLPRPRPRPWMYPRP | -0.22
87 | RRIRKRPPRLPRPRPRPRCPPRP | 0.52
88 | RRIRVRPPRLPRPRPRPPMSPRP | -0.249
89 | RRIRIRPPRLPRPRPRPQCVPRP | -0.0555
90 | RRIRDRPPRLPRPRPRPYVDPRP | -0.0902
91 | RRIRSRPPRLPRPRPRPKYPPRP | -0.186
92 | RRIRQRPPRLPRPRPRPHPSPRP | -0.462
93 | RRIRARPPRLPRPRPRPGNVPRP | 0.332
94 | RRIRERPPRLPRPRPRPPTWPRP | 0.113
95 | RRIRWRPPRLPRPRPRPGAGPRP | 0.796
96 | RRIRERPPRLPRPRPRPCKPPRP | 0.0172
97 | RRIRIRPPRLPRPRPRPHKMPRP | -0.237
98 | RRIRARPPRLPRPRPRPLQFPRP | 0.0375
99 | RRIRHRPPRLPRPRPRPYQYPRP | -0.00963
100 | RRIRGRPPRLPRPRPRPFEWPRP | -0.127

Row | Sequence | shrunken log2 fold change
101 | RRIRDRPPRLPRPRPRPAALPRP | 0.488
102 | RRIRFRPPRLPRPRPRPDQLPRP | 0.22
103 | RRIRFRPPRLPRPRPRPKVTPRP | -0.2
104 | RRIRARPPRLPRPRPRPAAGPRP | 0.78
105 | RRIRWRPPRLPRPRPRPNQAPRP | -0.0796
106 | RRIRFRPPRLPRPRPRPNNCPRP | -0.167
107 | RRIRRRPPRLPRPRPRPIYPPRP | -0.2
108 | RRIRPRPPRLPRPRPRPPDWPRP | 0.577
109 | RRIRERPPRLPRPRPRPIWGPRP | -0.0579
110 | RRIRDRPPRLPRPRPRPLGMPRP | 0.111
111 | RRIRRRPPRLPRPRPRPIEEPRP | 0.0745
112 | RRIRDRPPRLPRPRPRPQMTPRP | 0.103
113 | RRIRYRPPRLPRPRPRPPSEPRP | -0.0723
114 | RRIRNRPPRLPRPRPRPKQNPRP | 0.0598
115 | RRIRTRPPRLPRPRPRPAKCPRP | 0.0582
116 | RRIRFRPPRLPRPRPRPISCPRP | -0.038
117 | RRIRRRPPRLPRPRPRPQWNPRP | -0.153
118 | RRIRVRPPRLPRPRPRPWPYPRP | -0.197
119 | RRIRSRPPRLPRPRPRPKFRPRP | -0.183
120 | RRIRQRPPRLPRPRPRPQYDPRP | -0.081
121 | RRIRRRPPRLPRPRPRPWAAPRP | 0.403
122 | RRIRPRPPRLPRPRPRPPYNPRP | -0.495
123 | RRIRQRPPRLPRPRPRPKSFPRP | 0.0406
124 | RRIRIRPPRLPRPRPRPFNGPRP | -0.211
125 | RRIRMRPPRLPRPRPRPIVPPRP | 0.208

Row | Sequence | shrunken log2 fold change
126 | RRIRGRPPRLPRPRPRPFVSPRP | -0.166
127 | RRIRPRPPRLPRPRPRPLLDPRP | 0.0537
128 | RRIRKRPPRLPRPRPRPMIAPRP | 0.509
129 | RRIRPRPPRLPRPRPRPGIQPRP | -0.214
130 | RRIRCRPPRLPRPRPRPTDMPRP | -0.16
131 | RRIRARPPRLPRPRPRPDSSPRP | 0.371
132 | RRIRDRPPRLPRPRPRPTHSPRP | 0.177
133 | RRIRWRPPRLPRPRPRPETSPRP | 0.7
134 | RRIRIRPPRLPRPRPRPSMTPRP | -0.43
135 | RRIRFRPPRLPRPRPRPAKQPRP | -0.0234
136 | RRIRFRPPRLPRPRPRPCERPRP | -0.141
137 | RRIRYRPPRLPRPRPRPRDHPRP | -0.308
138 | RRIRRRPPRLPRPRPRPYEDPRP | -0.08
139 | RRIRYRPPRLPRPRPRPLGTPRP | -0.227
140 | RRIRGRPPRLPRPRPRPFHYPRP | -0.383
141 | RRIRVRPPRLPRPRPRPGQRPRP | 0.0272
142 | RRIRSRPPRLPRPRPRPSELPRP | -0.215
143 | RRIRTRPPRLPRPRPRPYNYPRP | -0.866
144 | RRIRSRPPRLPRPRPRPCASPRP | 0.121
145 | RRIRCRPPRLPRPRPRPHNDPRP | -0.889
146 | RRIRCRPPRLPRPRPRPVCYPRP | -0.269
147 | RRIRLRPPRLPRPRPRPCTLPRP | -0.328
148 | RRIRPRPPRLPRPRPRPGCKPRP | 0.368
149 | RRIRSRPPRLPRPRPRPVCKPRP | -0.0891
150 | RRIRYRPPRLPRPRPRPIVHPRP | -2.04
